# Experimental data: the supplement of paper PMC9112550, “Optimization of the antimicrobial peptide Bac7 by deep mutational scanning” (BMC Biology, 2022)
# System: Escherichia coli TOP10
# Assay: shrunken log2 fold change of peptide-encoding DNA abundance (4.5 h post-induction vs induction); higher = less antimicrobial activity (less host growth inhibition)
# Conditions: time post-induction: 4.5 h; library: site-saturation at positions 5, 18, 19, 20
# 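Also: peptides expressed intracellularly from a pBAD plasmid library in pooled LB shake-flask culture, induced with 0.3% L-arabinose, DNA abundance read by NGS, three biological replicates, DESeq2 with apeglm shrinkage.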
row,Sequence,shrunken log2 fold change
1,RRIRRRPPRLPRPRPRPHWHPRP,0.0772
2,RRIRRRPPRLPRPRPRPIAFPRP,-0.0124
3,RRIRRRPPRLPRPRPRPIARPRP,0.0248
4,RRIRRRPPRLPRPRPRPICAPRP,0.127
5,RRIRRRPPRLPRPRPRPICKPRP,0.0422
6,RRIRRRPPRLPRPRPRPICNPRP,-0.12
7,RRIRRRPPRLPRPRPRPICVPRP,0.0261
8,RRIRRRPPRLPRPRPRPIDEPRP,-0.106
9,RRIRRRPPRLPRPRPRPIDRPRP,-0.0459
10,RRIRRRPPRLPRPRPRPIEPPRP,-0.015
11,RRIRRRPPRLPRPRPRPIGAPRP,0.435
12,RRIRRRPPRLPRPRPRPIGMPRP,-0.0232
13,RRIRRRPPRLPRPRPRPIGWPRP,0.217
14,RRIRRRPPRLPRPRPRPIHPPRP,-0.261
15,RRIRRRPPRLPRPRPRPIKFPRP,-0.202
16,RRIRRRPPRLPRPRPRPILAPRP,1.17
17,RRIRRRPPRLPRPRPRPIMSPRP,-0.0839
18,RRIRRRPPRLPRPRPRPIMTPRP,0.125
19,RRIRRRPPRLPRPRPRPINFPRP,-0.0729
20,RRIRRRPPRLPRPRPRPIPIPRP,-0.0501

row,Sequence,shrunken log2 fold change
1,RRIRRRPPRLPRPRPRPIQGPRP,-0.00136
2,RRIRRRPPRLPRPRPRPIRQPRP,0.00198
3,RRIRRRPPRLPRPRPRPITCPRP,-0.307
4,RRIRRRPPRLPRPRPRPITYPRP,-0.0184
5,RRIRRRPPRLPRPRPRPIVLPRP,-0.102
6,RRIRRRPPRLPRPRPRPIYCPRP,-0.0446
7,RRIRRRPPRLPRPRPRPKAMPRP,0.431
8,RRIRRRPPRLPRPRPRPKARPRP,0.277
9,RRIRRRPPRLPRPRPRPKCDPRP,0.0319
10,RRIRRRPPRLPRPRPRPKCHPRP,0.0704
11,RRIRRRPPRLPRPRPRPKDDPRP,0.302
12,RRIRRRPPRLPRPRPRPKECPRP,0.0842
13,RRIRRRPPRLPRPRPRPKGIPRP,0.268
14,RRIRRRPPRLPRPRPRPKGWPRP,0.439
15,RRIRRRPPRLPRPRPRPKKAPRP,-0.00843
16,RRIRRRPPRLPRPRPRPKNFPRP,0.151
17,RRIRRRPPRLPRPRPRPKNGPRP,0.259
18,RRIRRRPPRLPRPRPRPKNIPRP,-0.136
19,RRIRRRPPRLPRPRPRPKNVPRP,-0.00431
20,RRIRRRPPRLPRPRPRPKPEPRP,0.489

row,Sequence,shrunken log2 fold change
1,RRIRRRPPRLPRPRPRPKQTPRP,0.186
2,RRIRRRPPRLPRPRPRPKRLPRP,0.191
3,RRIRRRPPRLPRPRPRPKRNPRP,0.525
4,RRIRRRPPRLPRPRPRPKSSPRP,-0.00897
5,RRIRRRPPRLPRPRPRPKTFPRP,-0.0358
6,RRIRRRPPRLPRPRPRPKVWPRP,0.382
7,RRIRRRPPRLPRPRPRPKWMPRP,0.338
8,RRIRRRPPRLPRPRPRPKYTPRP,-0.000338
9,RRIRRRPPRLPRPRPRPKYYPRP,-0.199
10,RRIRRRPPRLPRPRPRPLAIPRP,0.0863
11,RRIRRRPPRLPRPRPRPLANPRP,0.42
12,RRIRRRPPRLPRPRPRPLASPRP,0.382
13,RRIRRRPPRLPRPRPRPLCFPRP,0.898
14,RRIRRRPPRLPRPRPRPLCLPRP,0.0544
15,RRIRRRPPRLPRPRPRPLCNPRP,0.0189
16,RRIRRRPPRLPRPRPRPLCWPRP,0.623
17,RRIRRRPPRLPRPRPRPLEFPRP,-0.0524
18,RRIRRRPPRLPRPRPRPLGQPRP,0.00384
19,RRIRRRPPRLPRPRPRPLHTPRP,0.321
20,RRIRRRPPRLPRPRPRPLHWPRP,0.235
